Reference: paper PMC8454712 (Biochemical Journal, 2021)

Target: Growth factor receptor-bound protein 2 (Grb2), HepG2 cells (human (endogenous in HepG2), UniProt P62993 1-217)
Test: co-IP

fold change of the co-precipitated interaction, T2D condition against control: 1.35 fold
B1: NADPH oxidase NOX4, HepG2 cells (natural protein, human (endogenous in HepG2), UniProt Q9NPH5 1-578, looked up)
chain: MAVSWRSWLANEGVKHLCLFIWLSMNVLLFWKTFLLYNQGPEYHYLHQMLGLGLCLSRASASVLNLNCSLILLPMCRTLLAYLRGSQKVPSRRTRRLLDKSRTFHITCGVTICIFSGVHVAAHLVNALNFSVNYSEDFVELNAARYRDEDPRKLLFTTVPGLTGVCMVVVLFLMITASTYAIRVSNYDIFWYTHNLFFVFYMLLTLHVSGGLLKYQTNLDTHPPGCISLNRTSSQNISLPEYFSEHFHEPFPEGFSKPAEFTQHKFVKICMEEPRFQANFPQTWLWISGPLCLYCAERLYRYIRSNKPVTIISVMSHPSDVMEIRMVKENFKARPGQYITLHCPSVSALENHPFTLTMCPTETKATFGVHLKIVGDWTERFRDLLLPPSSQDSEILPFIQSRNYPKLYIDGPFGSPFEESLNYEVSLCVAGGIGVTPFASILNTLLDDWKPYKLRRLYFIWVCRDIQSFRWFADLLCMLHNKFWQENRPDYVNIQLYLSQTDGIQKIIGEKYHALNSRLFIGRPRWKLLFDEIAKYNRGKTVGVFCCGPNSLSKTLHKLSNQNNSYGTRFEYNKESFS
